Stoichiometry N, stoichiometry N (BtcA per BteA287) and Kd data for 2 substances are collected here from paper PMC3846842.

Assay [1] has as its target BtcA (Bordetella pertussis). The assay is described as follows: cross-linking; BtcA about 4 mg/ml in PBS with serially diluted EGS (from 3 mM), 30 min at RT, SDS-PAGE.
The target of assay [2] is BtcA (Bordetella pertussis). Description: SEC-RALS; BtcA (525 ug) on Superdex 200 10/300 with triple detector array; 20 mM Tris pH 8.0, 350 mM NaCl, 20 mM EDTA.
In assay [3] the target is BteA287 (BteA N-terminal domain, residues 1-287) (Bordetella pertussis). Description: MALDI-TOF MS; BtcA-BteA287 complex, linear mode, m/z 20,000 to 150,000; the methods describe EGS cross-linking of the complex before MALDI-TOF analysis.
For assay [4] the target is unchanged. Description: MST; labeled BteA287 or BteA32-287 (NT-495 BLUE-NHS) mixed with BtcA serially diluted from 200 uM or 100 uM; 20 mM Tris 8, 350 mM NaCl, 20 mM EDTA, 0.05% Tween-20; 20°C; logistic dose-response fit, three measurements averaged.
Assay [5] addresses BteA32-287 (Bordetella pertussis). Described as above.

Where “and” joins values, the source holds several entries; their conditions need not be identical. Equal entries are not always repeated.

For the substance BtcA (natural protein), the stoichiometry N in assay [1] and in assay [2] was 2 throughout. The stoichiometry N (BtcA per BteA287) in assay [3] is 1 and 2. Besides, the Kd – broadly, a measure of binding affinity in units of concentration – came out at 6.6 µM in assay [4] and 14 µM in assay [5].
Take “BteA287 (BteA N-terminal domain, residues 1-287) (domain or fragment)”: the stoichiometry N (usually a count of units in the complex or per binding partner) in assay [3] was 2.
